Measurements as given in patent US20220017630A1 (JIANGSU SIMCERE PHARMACEUTICAL, published 2022).
Changes are numbered by the printed parent chain.

Key:
[1] = target: T1, human TNFR2 on the cell surface (CHO-TNFR2 cells; human Treg cells) (human, UniProt P20333 23-461); assay: flow cytometry competition on CHO-TNFR2 cells: antibody first, then human TNFα-biotin, PE-streptavidin; MFI of bound TNFα-biotin [label on D00006), panel #133, table under the plot]
T1 construct: whole, on cells; The assay field of each row says which cells; also called TNFR2-CHO cell; TNFR2 on Treg cells
T1 sequence (looked up): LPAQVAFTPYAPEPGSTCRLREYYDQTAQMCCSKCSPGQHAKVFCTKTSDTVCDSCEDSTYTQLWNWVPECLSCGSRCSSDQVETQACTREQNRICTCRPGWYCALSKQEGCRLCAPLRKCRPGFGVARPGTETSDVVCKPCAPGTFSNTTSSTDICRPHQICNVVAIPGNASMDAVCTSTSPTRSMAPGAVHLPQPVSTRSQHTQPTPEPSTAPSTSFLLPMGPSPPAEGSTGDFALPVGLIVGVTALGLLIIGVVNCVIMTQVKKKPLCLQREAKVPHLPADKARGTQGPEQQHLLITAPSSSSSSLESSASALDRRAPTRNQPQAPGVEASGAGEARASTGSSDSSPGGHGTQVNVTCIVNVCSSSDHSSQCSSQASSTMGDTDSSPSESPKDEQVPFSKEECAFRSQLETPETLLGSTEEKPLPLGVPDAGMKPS
Description: (§1) CHO cells that stably overexpressed human TNFR2 were used for experiments. The cells were resuscitated and passaged until in good state, and the expression level of human TNFR2 on the cells was assessed by FACS. Compared to the isotype control, the assay could be carried out when the fold change of mean fluorescence intensity (MFI) was more than 100 times.
(§2) CHO-TNFR2 cells were digested, washed twice with DPBS and stained with Live/Dead (L/D) at room temperature for 20 min, and then seeded at 1×10⁵ cells/50 μl/well. […] The diluted antibodies were added 50 μl/well into wells pre-seeded with cells, and gently blown and mixed to make the final concentrations of the antibodies to 20, 6.67, 2.22, 0.74, 0.247, 0.08, 0.027 and 0 nM, respectively followed by incubation at 4° C. for 30 min. […] After washing twice with the staining buffer, 100 μl/well of PE-streptavidin was added and incubated at 4° C. for 30 min. After additional washing with the staining buffer twice, 150 μl resuspended cells was analyzed using an flow cytometry. Taking the logarithmic value of the antibody concentrations as abscissa and the corresponding MFI value as ordinate, the inhibition curve of the antibody was drawn, and the IC50 value was calculated by four parameters fitting.

[2] = target: T1, human TNFR2 on the cell surface …; assay: flow cytometry competition on CHO-TNFR2 cells: antibody first, then human TNFα-biotin, PE-streptavidin; MFI of bound TNFα-biotin [label on D00006), panel #125, table under the plot]
Description: as §1, §2

[3] = target: T1, human TNFR2 on the cell surface …; assay: flow cytometry competition on CHO-TNFR2 cells: antibody first, then human TNFα-biotin, PE-streptavidin; MFI of bound TNFα-biotin [label on D00006), panel #001, table under the plot]
Description: as §1, §2

[4] = target: T1, human TNFR2 on the cell surface …; assay: flow cytometry competition on CHO-TNFR2 cells: antibody first, then human TNFα-biotin, PE-streptavidin; MFI of bound TNFα-biotin [label on D00006), panel #088, table under the plot]
Description: as §1, §2

[5] = target: T1, human TNFR2 on the cell surface …; assay: flow cytometry competition on CHO-TNFR2 cells: antibody first, then human TNFα-biotin, PE-streptavidin; MFI of bound TNFα-biotin [panel #226, table under the plot]
Description: as §1, §2

[6] = target: T1, human TNFR2 on the cell surface …; assay: flow cytometry competition on CHO-TNFR2 cells: antibody first, then human TNFα-biotin, PE-streptavidin; MFI of bound TNFα-biotin [label on D00006), panel #224 (printed twice, bottom left and bottom right), table under the plot]
Description: as §1, §2

[7] = target: T1, human TNFR2 on the cell surface …; assay: flow cytometry competition on CHO-TNFR2 cells: antibody first, then human TNFα-biotin, PE-streptavidin; MFI of bound TNFα-biotin [panel #365, table under the plot]
Description: as §1, §2

[8] = target: T1, human TNFR2 on the cell surface …; assay: flow cytometry competition on CHO-TNFR2 cells: antibody first, then human TNFα-biotin, PE-streptavidin; MFI of bound TNFα-biotin [panel #395, table under the plot]
Description: as §1, §2

[9] = target: T1, human TNFR2 on the cell surface …; assay: flow cytometry competition on CHO-TNFR2 cells: antibody first, then human TNFα-biotin, PE-streptavidin; MFI of bound TNFα-biotin [panel #309, table under the plot]
Description: as §1, §2

B1: TNFR2 antibody #133 (antibody, V domains shown)
VH: EVQLQESGAELVRSGASVKLSCTASGFNIKDYYIQWVKQRPEQGLEWIGWIDPESGNTKYAPKFQDKATMTADTSSNTAYLQLSGLTSEDSAVYYCNAYYDYDGSMDYWGQGTTVTVSS
VL: DIVMTQSPLSLPVSLGDQASISCRSSQSLVHSNGNTYLHWYLQKPGQSPKLLIYKVSNRFSGVPDRFSGSGSGTDFTLKISRVETDDLGVYFCSQSTHVPTWTFGGGTKLEIK
[1]
  IC50: 0.04 µg/mL

B2: TNFR2 antibody #125 (antibody, V domains shown)
VH: EVQLQESGGGLVQPGGSLNLSCAASGFAFSIYDLSWVRQTPEKRLEWVAYINNGGISTYYSDTVKGRFTISRDNAKNTLYLQMSSLKSEDTAMYYCVRGPFYGSANYFDYWGQGTTVTVSS
VL: DIQMTQSPASLSLSVGETVTITCRASENIYSNLAWYQQKQGKSPQLLVYDATKLAEGVPSRFSGSESGTQYSLKINSLQSEDFGTYYCQHFWVTPWTFGGGTKLEIK
[2]
  IC50: 0.109 µg/mL

B3: TNFR2 antibody #001 (antibody, V domains shown)
VH: B2 VH with I31T
VL: B2 VL with D1E, Q3V, A25T, N28S, A34P
notes: also called antibody #1
[3]
  IC50: 0.14 µg/mL

B4: TNFR2 antibody #088 (antibody, V domains shown)
VH: B2 VH with I31T, E42G, S71T
VL: B2 VL with Q3L, S14F
[4]
  IC50: 0.185 µg/mL

B5: TNFR2 antibody #226 (antibody, V domains shown)
VH: EVQLQESGAELVRPGASVKLSCKASGYSFTNYWMNWVKQRPGQGLEWIGMIHPSDSETRLNQKFKDKATLTVDKSSSTAYMQLSSPTSEDSAVYYCARGEGLGAARSVSMDYWGQGTTVTVSS
VL: DIQMTQSPSSLSASLGDRVTISCRASQDISNYLNWYQQKPDGTVKVLIYYTALLHSGVPSRFSGSGSGTDYSLTISNLEQEDIATYFCQQGNTLPWTFGGGTKLEIK
[5]
  IC50: 0.06 µg/mL

B6: TNFR2 antibody #224 (antibody, V domains shown)
VH: EVQLQESGPEIVKPGASVKLSCTASGFNNKDIYMHWVKQRPEQGLEWIGRIDPATGNTKHDPKFQDKATLSSDTSSNTAYLQFSSLTSEDTAVYYCAHSPYGDFGAMDYWGQGTTVTVSS
VL: DIQMTQSPAIMSASLGERVTMTCTASSSVSSNYLHWYQQKPGSSPKLWIYSTSNLPSGVPARFSGSGSGTSYSLTISSMEAEDAATYYCHQYHRSPWTFGGGTKLEIK
[6]
  IC50: 0.128 µg/mL

B7: TNFR2 antibody #365 (antibody, V domains shown)
VH: EVQLQESGPGLVQPSQSLSITCTVSGFSLTSYGVHWVRQSPGKGLEWLGLIWSDGSPDYSAAFISRLSINKDNSKSQVFFKMNSLQADDTAIYYCARNDDGGDYVMDYWGQGTTVTVSS
VL: EIVLTQSPALMSASPGEKVTMTCSASSSVSYMYWYQQKPRSSPKPWIYLTSNLASGVPARFSGSGSGTSYSLTISSMEAEDAATYYCQQWTSNPLTFGAGTKLEIK
[7]
  IC50: 0.041 µg/mL

B8: TNFR2 antibody #395 (antibody, V domains shown)
VH: B7 VH with G10V, G33S, L50V, S56G, P57T, N70S, V105A
VL: B7 VL with T91S
[8]
  IC50: 0.021 µg/mL

B9: TNFR2 antibody #309 (antibody, V domains shown)
VH: EVQLQESGAELVKPGASVKLSCKASGYTFTSYWIHWVKLRPGQGFEWIGEINPNNGGTDYNEKFKRKATLTVDKSSSTAYMELSSLTSEDSAIYYCTIDSMITTTWFAYWGQGTTVTVSS
VL: EIVMTQSQKLMSTVVGDRVSVTCKASQNVGTNVAWFQQKPGQSPKALINSASYRYSGVPDRFTGSGSGTDFTLTISSVQSEDLAEYFCQQYNSYPFTFGSGTKLEIK
[9]
  IC50: 0.116 µg/mL
